Data published in the RNAGym collection of RNA variant scans (doi:10.1073/pnas.2313332121).

B1: TPR t1 (parent)
chain: GACCAAUCUGCCCUCAGAGCUCGAGAACAUCUUCGGAUGCAGAGGAGGCAGGCUUCGGUGGCGCGAUAGCGCCAACGUCCUCAACCUCCAAUGCAUCCCACCACAUGAUGAUGCCUGAAGAGCCUUGGUUUUUUG

Variants of: B1
Test: polymerase ribozyme fitness, log enrichment relative to wild type (log ratio); higher = more active; in vitro selection for triplet polymerase activity
Summary of the method: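 One round of in vitro selection, in triplicate, was applied to PCR-built, transcribed mutant libraries of each subunit of a heterodimeric triplet polymerase ribozyme. The steps were annealing with a biotinylated primer, partner subunit and triplets, incubation frozen at −7 °C, gel excision of extended constructs, streptavidin-bead capture and RT-PCR. Fitness is the logarithm, base 2, of genotype enrichment over wild-type enrichment from inverse-variance-weighted replicate averages of Illumina-sequenced inputs and outputs, keeping genotypes with ≥10 input reads and ≥1 read per output.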

In order of rising “polymerase ribozyme fitness (log ratio)” value:
1. G10A G17C C34A G47U C72G C80U C124A  -7.1
2. G10C C11A U54G A68U U109A G128U  -7.09
3. G10A G42U C49A C70G C98A U112G U130G  -6.93
4. G10C G60U C82A U96A G107U A119U  -6.51
5. G10A G48C C64A G113A A119G C124G  -6.38
6. G10C G42C G61C C123A G128A  -6.33
7. G10C U96G C97U G120C G135U  -5.98
8. G10A G69U C79A A103C C115U G122A  -5.83
9. G10C G35A U59C U112A  -5.77
10. G10A G17A A37G G42U C53A C64U A100U  -5.75
11. G10C A108C C114G  -5.74
12. G10A U21G G60A A103C C114A  -5.69
13. G10C C34U  -5.43
14. G10A G35A G77A  -5.04
15. G10A G51U C101A  -4.71
16. G10A G71C U81A A100C  -4.69
17. G10A U38G G48C C79A  -4.53
18. G10A C97A G120U  -4.42
19. G10A G51A C70U A119G  -4.32
20. G10A G17U A18U C115U C123G U130A  -4.27
21. G10C A29C G61C C123U U125A G135A  -4.26
22. G10C C49A G51C G57C C72U  -4.25
23. G10C C49A G51C G57C C72U C115G  -3.99
24. G10C A24G A46C C86G  -3.81
25. G10C A41C C70U  -3.72
26. G10A G35A  -3.71
27. G10A G19U  -3.62
28. G10C U106C G127A G135U  -3.46
29. G10A G19A A74U  -3.32
30. G10A G63A C89A  -3.25
31. G10C C49G U55G C94A  -3.2
32. G10C A43G  -3.12
33. G10C C115A G128A  -3.1
34. G10C G128C  -3.1
35. G10A G17A  -3.1
36. G10C G42C C123A G128A  -2.91
37. G10C C20A U54A C64U C88G A118U  -2.75
38. G10C A66C C79U  -2.72
39. G10A G47U A83G  -2.7
40. G10C G69U C79G C80U  -2.66
41. G10A G45C C56G C72U  -2.53
42. G10C G45A C104A  -2.44
43. G10C G52U G58C A84U  -2.42
44. G10A G61U C86U U92C G93A  -2.24
45. G10A U21G G44C C80U C123G  -2.04
46. G10C A16U  -1.98
47. G10C A41U A50G  -1.93
48. G10C U87G C115U A119G G120C U131G  -1.59
49. G10C G71U C86U  -1.57
50. G10A U87A C115G C123G  -1.54
51. G10C C40U G45U  -1.47
52. G10A G42A A43U C64U  -1.45
53. G10C G60U A118G  -1.45
54. G10A G45A  -1.2
55. G10A U87G G110U  -1.12
56. G10C G61A U96A  -0.958
57. G10C C13A C82U A83C  -0.888
58. G10C G60U  -0.819
59. G10C U32C C114U  -0.699
60. G10C C56U  -0.594
61. G10A G39U  -0.557
62. G10A G45C  -0.489
63. G10C C13G C94A  -0.274
64. G10A U116C  -0.237
65. G10C C13U U78G C79U C89U  -0.171
66. G10A U55A G60C G122A  -0.167
67. G10A G61A C94U  -0.166
68. G10C C11U C94G  -0.146
69. G10A U106C  -0.101
70. G10A G60U  -0.0901
71. G10C C40G C56G G77U U112C  -0.0532
72. G10A U38G  0.0174
73. G10C C12A U54C G122A  0.0391
74. G10A U106A  0.457
75. G10C A66U C97U G120U C123U  0.489
76. G10C G52C G77U A121U  0.617
77. G10C A50G G69U C89A A121U  0.925
78. G10C G120C  1.04
79. G10C C64U A121U U131A  1.16
80. G10C C49G G61A U112A A118U  1.17
81. G10A G60A C82A C94U C123A  1.22
82. G10C C56G C123U  1.26
83. G10C C64U C123G U133A  1.47
84. G10A C88A C123U  1.69
